Data taken from patent US20210388053A1.
Values joined by “and” are separate entries in the source; they are usually repeats but may differ in a detail not shown here. Identical values can stand only once.

Tests used:
[1] = target: canine FcRn/B2M protein complex (canine FcRn ECD with C-terminal poly-His tag and canine Beta-2-Microglobulin) (canine); experiment: SPR Biacore T200 steady state, pH 6.0, 25 C; Fc on CM5 chip, FcRn/B2M 12.5-200 nM
[2] = target: canine FcRn/B2M protein complex (canine FcRn ECD with C-terminal poly-His tag and canine Beta-2-Microglobulin) (canine); experiment: SPR Biacore T200, pH 6.0; biotinylated FcRn/B2M immobilized, Fc as analyte
[3] = target: canine FcRn/B2M protein complex (canine FcRn ECD with C-terminal poly-His tag and canine Beta-2-Microglobulin) (canine); experiment: SPR Biacore 8K, pH 6.0, 25 C; Fc captured by SASA tag on BSA chip, FcRn/B2M 400 nM as analyte

canine FcRn/B2M protein complex (canine FcRn ECD with C-terminal poly-His tag and canine Beta-2-Microglobulin) (canine), sequence (chain, as listed by the source limits assumed, form in doubt, chain 1 of 2): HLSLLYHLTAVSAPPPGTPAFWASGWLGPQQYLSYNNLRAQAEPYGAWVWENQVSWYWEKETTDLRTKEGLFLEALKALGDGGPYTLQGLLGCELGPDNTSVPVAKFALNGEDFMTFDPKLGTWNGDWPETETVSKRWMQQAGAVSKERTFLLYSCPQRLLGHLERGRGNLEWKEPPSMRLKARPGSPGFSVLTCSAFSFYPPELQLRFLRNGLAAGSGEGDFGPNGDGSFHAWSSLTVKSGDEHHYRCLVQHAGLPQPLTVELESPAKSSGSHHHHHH
canine FcRn/B2M protein complex (canine FcRn ECD with C-terminal poly-His tag and canine Beta-2-Microglobulin) (canine), sequence (b2m, as listed by the source limits assumed, form in doubt, chain 2 of 2): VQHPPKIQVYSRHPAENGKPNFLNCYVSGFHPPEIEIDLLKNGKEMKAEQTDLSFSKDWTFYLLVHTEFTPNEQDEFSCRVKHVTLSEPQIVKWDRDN

B1: variant canine IgG-B Fc polypeptide L(24)M (protein, not shown: small tags and cut ends)
chain: CPAPEMLGGPSVFIFPPKPKDTLMIARTPEVTCVVVDLDPEDPEVQISWFVDGKQMQTAKTQPREEQFNGTYRVVSVLPIGHQDWLKGKQFTCKVNNKALPSPIERTISKARGQAHQPSVYVLPPSREELSKNTVSLTCLIKDFFPPDIDVEWQSNGQQEPESKYRTTPPQLDEDGSYFLYSKLSVDKSRWQRGDTFICAVMHEALHNHYTQESLSHSPGK
B1 showed a Kd [1] of 406 nM and a koff [2] of 0.126 s⁻¹.

B2: variant canine IgG-B Fc polypeptide Y0Y (Leu24Tyr, Asn208Tyr) (protein, not shown: small tags and cut ends)
chain: CPAPEMLGGPSVFIFPPKPKDTLYIARTPEVTCVVVDLDPEDPEVQISWFVDGKQMQTAKTQPREEQFNGTYRVVSVLPIGHQDWLKGKQFTCKVNNKALPSPIERTISKARGQAHQPSVYVLPPSREELSKNTVSLTCLIKDFFPPDIDVEWQSNGQQEPESKYRTTPPQLDEDGSYFLYSKLSVDKSRWQRGDTFICAVMHEALHYHYTQESLSHSPGK
For B2, the Kd [3] was 0.49 nM, the koff [3] was 0.00014 s⁻¹ and the kon [3] was 286000 M⁻¹ s⁻¹.

B3: variant canine IgG-B Fc polypeptide 0YF (Gln83Tyr, Asn208Phe) (protein, not shown: small tags and cut ends)
chain: CPAPEMLGGPSVFIFPPKPKDTLLIARTPEVTCVVVDLDPEDPEVQISWFVDGKQMQTAKTQPREEQFNGTYRVVSVLPIGHYDWLKGKQFTCKVNNKALPSPIERTISKARGQAHQPSVYVLPPSREELSKNTVSLTCLIKDFFPPDIDVEWQSNGQQEPESKYRTTPPQLDEDGSYFLYSKLSVDKSRWQRGDTFICAVMHEALHFHYTQESLSHSPGK
Binder B3 has a Kd [3] of 3.1 nM, a koff [3] of 0.00118 s⁻¹ and a kon [3] of 380000 M⁻¹ s⁻¹.

B4: variant canine IgG-B Fc polypeptide 0YY (Gln83Tyr, Asn208Tyr) (protein, not shown: small tags and cut ends)
chain: CPAPEMLGGPSVFIFPPKPKDTLLIARTPEVTCVVVDLDPEDPEVQISWFVDGKQMQTAKTQPREEQFNGTYRVVSVLPIGHYDWLKGKQFTCKVNNKALPSPIERTISKARGQAHQPSVYVLPPSREELSKNTVSLTCLIKDFFPPDIDVEWQSNGQQEPESKYRTTPPQLDEDGSYFLYSKLSVDKSRWQRGDTFICAVMHEALHYHYTQESLSHSPGK
Binder B4 has a Kd [3] of 2.03 nM, a koff [3] of 0.00086 s⁻¹ and a kon [3] of 425000 M⁻¹ s⁻¹.

B5: variant canine IgG-B Fc polypeptide 0YW (Gln83Tyr, Asn208Trp) (protein, not shown: small tags and cut ends)
chain: CPAPEMLGGPSVFIFPPKPKDTLLIARTPEVTCVVVDLDPEDPEVQISWFVDGKQMQTAKTQPREEQFNGTYRVVSVLPIGHYDWLKGKQFTCKVNNKALPSPIERTISKARGQAHQPSVYVLPPSREELSKNTVSLTCLIKDFFPPDIDVEWQSNGQQEPESKYRTTPPQLDEDGSYFLYSKLSVDKSRWQRGDTFICAVMHEALHWHYTQESLSHSPGK
B5 was tested, and the Kd [3] was 6.1 nM, the koff [3] was 0.00213 s⁻¹ and the kon [3] was 348000 M⁻¹ s⁻¹.

B6: variant canine IgG-B Fc polypeptide Y0R (Leu24Tyr, Asn208Arg) (protein, not shown: small tags and cut ends)
chain: CPAPEMLGGPSVFIFPPKPKDTLYIARTPEVTCVVVDLDPEDPEVQISWFVDGKQMQTAKTQPREEQFNGTYRVVSVLPIGHQDWLKGKQFTCKVNNKALPSPIERTISKARGQAHQPSVYVLPPSREELSKNTVSLTCLIKDFFPPDIDVEWQSNGQQEPESKYRTTPPQLDEDGSYFLYSKLSVDKSRWQRGDTFICAVMHEALHRHYTQESLSHSPGK
Work on B6 yielded a Kd [3] of 8.64 nM, a koff [3] of 0.00295 s⁻¹ and a kon [3] of 341000 M⁻¹ s⁻¹.

B7: variant canine IgG-B Fc polypeptide L(24)Y (protein, not shown: small tags and cut ends)
chain: CPAPEMLGGPSVFIFPPKPKDTLYIARTPEVTCVVVDLDPEDPEVQISWFVDGKQMQTAKTQPREEQFNGTYRVVSVLPIGHQDWLKGKQFTCKVNNKALPSPIERTISKARGQAHQPSVYVLPPSREELSKNTVSLTCLIKDFFPPDIDVEWQSNGQQEPESKYRTTPPQLDEDGSYFLYSKLSVDKSRWQRGDTFICAVMHEALHNHYTQESLSHSPGK
Work on B7 yielded a Kd [1] of 113 nM and a koff [2] of 0.0138 s⁻¹.

B8: variant canine IgG-B Fc polypeptide 0YH (Gln83Tyr, Asn208His) (protein, not shown: small tags and cut ends)
chain: CPAPEMLGGPSVFIFPPKPKDTLLIARTPEVTCVVVDLDPEDPEVQISWFVDGKQMQTAKTQPREEQFNGTYRVVSVLPIGHYDWLKGKQFTCKVNNKALPSPIERTISKARGQAHQPSVYVLPPSREELSKNTVSLTCLIKDFFPPDIDVEWQSNGQQEPESKYRTTPPQLDEDGSYFLYSKLSVDKSRWQRGDTFICAVMHEALHHHYTQESLSHSPGK
With B8 the Kd [3] was 11.8 nM, the koff [3] was 0.00791 s⁻¹ and the kon [3] was 673000 M⁻¹ s⁻¹.

B9: variant canine IgG-B Fc polypeptide YYW (Leu24Tyr, Gln83Tyr, Asn208Trp) (protein, not shown: small tags and cut ends)
chain: CPAPEMLGGPSVFIFPPKPKDTLYIARTPEVTCVVVDLDPEDPEVQISWFVDGKQMQTAKTQPREEQFNGTYRVVSVLPIGHYDWLKGKQFTCKVNNKALPSPIERTISKARGQAHQPSVYVLPPSREELSKNTVSLTCLIKDFFPPDIDVEWQSNGQQEPESKYRTTPPQLDEDGSYFLYSKLSVDKSRWQRGDTFICAVMHEALHWHYTQESLSHSPGK
B9 gave a Kd [3] of 1.93 nM, a koff [3] of 0.000496 s⁻¹ and a kon [3] of 256000 M⁻¹ s⁻¹.

B10: wild-type canine IgG-B Fc polypeptide (protein, not shown: small tags and cut ends)
chain: CPAPEMLGGPSVFIFPPKPKDTLLIARTPEVTCVVVDLDPEDPEVQISWFVDGKQMQTAKTQPREEQFNGTYRVVSVLPIGHQDWLKGKQFTCKVNNKALPSPIERTISKARGQAHQPSVYVLPPSREELSKNTVSLTCLIKDFFPPDIDVEWQSNGQQEPESKYRTTPPQLDEDGSYFLYSKLSVDKSRWQRGDTFICAVMHEALHNHYTQESLSHSPGK
Binder B10 has a Kd [1] of 1250 nM, a Kd [3] of 102 nM and a koff [3] of 0.0856 s⁻¹. The kon [3] was 838000 M⁻¹ s⁻¹ and the koff [2] was 0.122 s⁻¹.

B11: variant canine IgG-B Fc polypeptide YYR (Leu24Tyr, Gln83Tyr, Asn208Arg) (protein, not shown: small tags and cut ends)
chain: CPAPEMLGGPSVFIFPPKPKDTLYIARTPEVTCVVVDLDPEDPEVQISWFVDGKQMQTAKTQPREEQFNGTYRVVSVLPIGHYDWLKGKQFTCKVNNKALPSPIERTISKARGQAHQPSVYVLPPSREELSKNTVSLTCLIKDFFPPDIDVEWQSNGQQEPESKYRTTPPQLDEDGSYFLYSKLSVDKSRWQRGDTFICAVMHEALHRHYTQESLSHSPGK
With B11 the Kd [3] was 1.84 nM, the koff [3] was 0.000638 s⁻¹ and the kon [3] was 347000 M⁻¹ s⁻¹.

B12: variant canine IgG-B Fc polypeptide Y0H (Leu24Tyr, Asn208His) (protein, not shown: small tags and cut ends)
chain: CPAPEMLGGPSVFIFPPKPKDTLYIARTPEVTCVVVDLDPEDPEVQISWFVDGKQMQTAKTQPREEQFNGTYRVVSVLPIGHQDWLKGKQFTCKVNNKALPSPIERTISKARGQAHQPSVYVLPPSREELSKNTVSLTCLIKDFFPPDIDVEWQSNGQQEPESKYRTTPPQLDEDGSYFLYSKLSVDKSRWQRGDTFICAVMHEALHHHYTQESLSHSPGK
Work on B12 yielded a Kd [3] of 8.11 nM, a koff [3] of 0.00271 s⁻¹ and a kon [3] of 334000 M⁻¹ s⁻¹.

B13: variant canine IgG-B Fc polypeptide YYH (Leu24Tyr, Gln83Tyr, Asn208His) (protein, not shown: small tags and cut ends)
chain: CPAPEMLGGPSVFIFPPKPKDTLYIARTPEVTCVVVDLDPEDPEVQISWFVDGKQMQTAKTQPREEQFNGTYRVVSVLPIGHYDWLKGKQFTCKVNNKALPSPIERTISKARGQAHQPSVYVLPPSREELSKNTVSLTCLIKDFFPPDIDVEWQSNGQQEPESKYRTTPPQLDEDGSYFLYSKLSVDKSRWQRGDTFICAVMHEALHHHYTQESLSHSPGK
B13 gave a Kd [3] of 1.7 nM, a koff [3] of 0.000612 s⁻¹ and a kon [3] of 360000 M⁻¹ s⁻¹.

B14: variant canine IgG-B Fc polypeptide L(24)S (protein, not shown: small tags and cut ends)
chain: CPAPEMLGGPSVFIFPPKPKDTLSIARTPEVTCVVVDLDPEDPEVQISWFVDGKQMQTAKTQPREEQFNGTYRVVSVLPIGHQDWLKGKQFTCKVNNKALPSPIERTISKARGQAHQPSVYVLPPSREELSKNTVSLTCLIKDFFPPDIDVEWQSNGQQEPESKYRTTPPQLDEDGSYFLYSKLSVDKSRWQRGDTFICAVMHEALHNHYTQESLSHSPGK
B14 was tested, and the koff [2] was 0.241 s⁻¹.

B15: YTE variant canine IgG-B Fc polypeptide (Leu24Tyr, Ala26Thr, Thr28Glu) (protein, not shown: small tags and cut ends)
chain: CPAPEMLGGPSVFIFPPKPKDTLYITREPEVTCVVVDLDPEDPEVQISWFVDGKQMQTAKTQPREEQFNGTYRVVSVLPIGHQDWLKGKQFTCKVNNKALPSPIERTISKARGQAHQPSVYVLPPSREELSKNTVSLTCLIKDFFPPDIDVEWQSNGQQEPESKYRTTPPQLDEDGSYFLYSKLSVDKSRWQRGDTFICAVMHEALHNHYTQESLSHSPGK
With B15 the Kd [1] was 86.2 nM, the Kd [3] was 31 nM and the koff [3] was 0.0205 s⁻¹. It also gave a kon [3] of 662000 M⁻¹ s⁻¹.

B16: variant canine IgG-B Fc polypeptide L(24)F (protein, not shown: small tags and cut ends)
chain: CPAPEMLGGPSVFIFPPKPKDTLFIARTPEVTCVVVDLDPEDPEVQISWFVDGKQMQTAKTQPREEQFNGTYRVVSVLPIGHQDWLKGKQFTCKVNNKALPSPIERTISKARGQAHQPSVYVLPPSREELSKNTVSLTCLIKDFFPPDIDVEWQSNGQQEPESKYRTTPPQLDEDGSYFLYSKLSVDKSRWQRGDTFICAVMHEALHNHYTQESLSHSPGK
In the case of B16, the Kd [1] is reported as 367 nM and the koff [2] is reported as 0.0631 s⁻¹ and 0.0847 s⁻¹.

B17: variant canine IgG-B Fc polypeptide 0YR (Gln83Tyr, Asn208Arg) (protein, not shown: small tags and cut ends)
chain: CPAPEMLGGPSVFIFPPKPKDTLLIARTPEVTCVVVDLDPEDPEVQISWFVDGKQMQTAKTQPREEQFNGTYRVVSVLPIGHYDWLKGKQFTCKVNNKALPSPIERTISKARGQAHQPSVYVLPPSREELSKNTVSLTCLIKDFFPPDIDVEWQSNGQQEPESKYRTTPPQLDEDGSYFLYSKLSVDKSRWQRGDTFICAVMHEALHRHYTQESLSHSPGK
Work on B17 yielded a Kd [3] of 9.45 nM, a koff [3] of 0.00655 s⁻¹ and a kon [3] of 693000 M⁻¹ s⁻¹.

B18: variant canine IgG-B Fc polypeptide Y0F (Leu24Tyr, Asn208Phe) (protein, not shown: small tags and cut ends)
chain: CPAPEMLGGPSVFIFPPKPKDTLYIARTPEVTCVVVDLDPEDPEVQISWFVDGKQMQTAKTQPREEQFNGTYRVVSVLPIGHQDWLKGKQFTCKVNNKALPSPIERTISKARGQAHQPSVYVLPPSREELSKNTVSLTCLIKDFFPPDIDVEWQSNGQQEPESKYRTTPPQLDEDGSYFLYSKLSVDKSRWQRGDTFICAVMHEALHFHYTQESLSHSPGK
B18 was tested, and the Kd [3] was 0.787 nM, the koff [3] was 0.000221 s⁻¹ and the kon [3] was 281000 M⁻¹ s⁻¹.

B19: variant canine IgG-B Fc polypeptide Y0W (Leu24Tyr, Asn208Trp) (protein, not shown: small tags and cut ends)
chain: CPAPEMLGGPSVFIFPPKPKDTLYIARTPEVTCVVVDLDPEDPEVQISWFVDGKQMQTAKTQPREEQFNGTYRVVSVLPIGHQDWLKGKQFTCKVNNKALPSPIERTISKARGQAHQPSVYVLPPSREELSKNTVSLTCLIKDFFPPDIDVEWQSNGQQEPESKYRTTPPQLDEDGSYFLYSKLSVDKSRWQRGDTFICAVMHEALHWHYTQESLSHSPGK
B19 showed a Kd [3] of 3.72 nM, a koff [3] of 0.000929 s⁻¹ and a kon [3] of 250000 M⁻¹ s⁻¹.
